This experiment has as its target Alexa 594 labeled His-tagged protoxin (Clostridium perfringens epsilon protoxin) (Clostridium perfringens, UniProt Q02307 33-328). As to the kind of experiment: fluorescent toxin staining, MAL loss-of-function mouse.

B1: mouse MAL (endogenous, in wild-type mouse tissues; absent in MAL KO mice) (receptor)
chain: MAPAAASGGSTLPSGFSVFTTFPDLLFVCEFVFGGLVWILIASSLVPLPLAQGWVMFVSVFCFVATTSLMILYIIGTHGGETSWITLDAAYHCVAALFYLSASVLEALATISMFDGFTYKHYHENIAAVVFAYVVTLIYVVHAVFSLIRWKSS
notes: whole, on cells
For B1, the binding result was “binds”.
